± gives the uncertainty stated by the source.
Experiment: amyloid nucleation score (Sup35N fusion, yeast selection) (log enrichment); library NNK2; higher = more nucleation; inactive = no reads after selection
Procedure, shortened: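 Psi-negative yeast expressed Sup35N fused to peptides of 20 random codons. They were induced 24 hours with 100 μM copper sulfate, grown 7 days at 30°C without adenine and uracil, and their plasmid inserts from input and output were Illumina-sequenced. The nucleation score is the DiMSum log enrichment of output over input reads, centred on the mode score of non-aggregating sequences. Sequences with under 100 input reads were excluded.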

Substance | amyloid nucleation score
RKLTIA | -0.887 ± 0.42
RKYTCSFRLFYRGVCFVT | -1.16 ± 0.76
RLALY | 1.45 ± 0.25
RLCAVITMVEVIYFSYYVWF | 0.013 ± 0.55
RLCWWLVWS | 0.166 ± 0.76
RLFNTYYSRSFASYGYWLHC | 0.47 ± 0.16
RLFRFPNVLHDLICNMYICA | 6.024 ± 0.049
RLGIFYKVDLSLVGKVPNST | 2.79 ± 0.17
RLGSRGSLSFYVHLTCWVEV | -0.27 ± 0.79
RLGWNGE | -0.709 ± 0.49
RLLFCGWLTN | -1 ± 1
RLLFVWV | 4.12 ± 0.087
RLNVL | -0.987 ± 0.53
RLPARLGSS | 0.23 ± 0.25
RLRGFIPLCTYIFPNFRGLL | -0.718 ± 0.65
RLRQMCFKRNSVKLLLWNRF | 0.409 ± 0.8
RLSIHKSFVFDLTRSALSTM | -0.293 ± 0.55
RLSYWFIKELGNTSDYDRAP | -0.541 ± 0.76
RLTSGIW | -0.814 ± 0.76
RLYKRLR | -1.19 ± 1.1
RLYNSQFIKYWNFSSRCCLL | 3.51 ± 0.098
RMCMR | 0.017 ± 0.34

Substance | amyloid nucleation score
RMCWELFT | 0.022 ± 0.34
RMDVISEKFVWANESNCGVA | 0.362 ± 0.25
RMETTKPIRSSGTSITAPNG | 1.53 ± 0.53
RMEVEFFVPW | 2.9 ± 0.11
RMFRFRRHSKHLEKLSSRFL | -0.222 ± 0.49
RMLFVHPVGYGCEAAVGSSW | 1.09 ± 0.23
RMLLIGIRCLIMSWHMLHN | -0.029 ± 0.37
RMLSRSRWLTI | -0.169 ± 0.34
RMLYVFSFTHNKVVIFARTE | -1.11 ± 0.76
RMRFYWWDVSMLYTCSYSDF | 1.04 ± 0.11
RMVSYY | -0.474 ± 0.56
RNGFAIRITANHYTQLVYDL | 3.82 ± 0.094
RNHRRSWMPSFRTKLNGGWF | 3.58 ± 0.14
RNIIFTWGLCC | 5.913 ± 0.035
RNSIYCTND | -0.679 ± 0.47
RNSSL | 0.495 ± 0.48
RNVSNRPNAQIRKSVRCCWG | 0.388 ± 0.42
RPGYNQMDFDWRLLIDVFDG | -0.133 ± 1
RPLPSFPNNRSERSNTSF | 0.851 ± 0.57
RPLSAEACPYVCTVSWDGLW | 1.02 ± 0.14
RPWLVY | 0.026 ± 1.1
RQSFVVDNNELCKFTCDYSC | 7.376 ± 0.043

Substance | amyloid nucleation score
RQSNPR | 1.53 ± 0.31
RQTSLKRL | -0.159 ± 1
RQVGNHSTYGLFNVQTRLRL | 2.52 ± 0.079
RRAWGFLVMRVGTDPMMTGI | 0.196 ± 0.37
RRDSVKCVSARGRISLLVSR | 2.8 ± 0.056
RRFLNGFFRVQRLRYRHPFI | -0.005 ± 0.63
RRGHVL | 1.82 ± 0.21
RRGKFEAANSWGD | 0.792 ± 0.53
RRGQEGYRVEWA | 1.22 ± 0.59
RRIGFDAPDVSRYVALLYWD | -0.106 ± 0.32
RRIVGFFANDRTLIYLVGYI | -0.902 ± 0.49
RRLAGSTAEKMYMF | inactive
RRLFRLVVYFLPNR | inactive
RRLKLRINMVFLEYGFKSKF | 3.8 ± 0.046
RRNFGGNLNWIDIVYEHVCL | 0.09 ± 0.33
RRRHLGFGKSVEVE | -0.549 ± 0.34
RRSGGPGEDGGSYERQFTSR | 0.95 ± 0.32
RRSYFFLVTFTLDVRDMVCF | 1.77 ± 0.18
RRTSYLCWFAGYFGLI | -0.295 ± 0.45
RRVNFMKVTFNLKVILFRWS | -1.52 ± 1.1
RRWYYFIEWRKYYQNRTVDQ | -0.321 ± 0.8
RRYGKW | 1.67 ± 0.41

Substance | amyloid nucleation score
RSERPFAWVMALTFTCAGGL | 3.47 ± 0.11
RSFSSPRIILYVKLLVSLYG | -0.783 ± 0.25
RSGVL | 4.24 ± 0.066
RSHATFRSSSLIPGVEV | 0.409 ± 0.23
RSHVVH | 1.18 ± 0.68
RSILEM | -0.302 ± 0.61
RSKHQKRSALCYFESGVTAV | 0.663 ± 0.37
RSMDPCRLLSELIRRT | 0.938 ± 0.32
RSQGLWMHAGPSFSVGYPFG | 3.9 ± 0.085
RSSRW | 2.82 ± 0.1
RSSSVVEARGESST | 7.106 ± 0.041
RSSTLNRRKNKGGSTNVDCL | 0.355 ± 0.56
RSTQLNSGPTANK | 1.21 ± 0.41
RSVPYSLCSMQLCTFHFEHS | 8.384 ± 0.028
RTALLP | 1.58 ± 0.52
RTDFMHTIFLPCRGHGMSWF | 0.91 ± 0.35
RTDRSYRGLKPVVLVTQWGG | -0.106 ± 0.63
RTIYFFLSWHFGSFIKFLKL | inactive
RTLWATNVRLKNLHVFIMVM | 0.147 ± 0.8
RTPFEDKVSIGDDSRSRADL | 0.414 ± 0.41
RTRSSYGVVLKIRKWCPEVA | 1.18 ± 0.61
RTSRVKVR | 4.13 ± 0.074

Substance | amyloid nucleation score
RTVGLSHIIICN | 0.089 ± 0.5
RTVYRFNVRI | 0.291 ± 0.27
RTVYYHQFPGSGFVYVSGFS | -0.324 ± 1.1
RTWAFFKAVWGIVDRTTLSN | -1.13 ± 0.62
RVDLVDSSICADANLLG | 1.17 ± 0.26
RVFKDTRRIG | -0.545 ± 1
RVFNLLYVLNWNAKSLSWMS | 4.32 ± 0.11
RVGACRMVRHYVGTWVQQLL | 0.246 ± 1.1
RVGTLSWTRAFVFLGYGMVQ | -0.044 ± 0.48
RVIWRQWYNTL | 1.61 ± 0.19
RVIWSPSRDRSSWFTESEYH | -0.278 ± 0.36
RVLKLCRLCHFKYLTSEAGV | -0.309 ± 0.34
RVQVPLGRAGTRISRSGKIW | 0.805 ± 0.43
RVRSSLVDLASVGSILLTAR | -0.264 ± 0.41
RVSTNGFVSQPMRWYVIVDS | -0.142 ± 0.25
RVTYDFFILWC | 4.465 ± 0.044
RVYLFLELIRALSFRTNHCG | -0.245 ± 0.76
RVYMWLWIGWCRIG | 0.58 ± 0.51
RWAFHCKSRDVFNMRKL | inactive
RWITSAY | 0.709 ± 0.62
RWQCLVEHMRSANLGVRRGP | 0.074 ± 0.41
RWSGPGCTLSTGMWTFIPQV | -0.145 ± 0.76

Substance | amyloid nucleation score
RWTWNSEVRNLRIFASYPGC | -0.418 ± 1.1
RWYRRCLYT | 0.162 ± 0.37
RYAQGRRWSYRLNRCLVGRC | 1.81 ± 0.27
RYAYLFGPGRCWMFLSVFPY | 4.2 ± 0.069
RYKWFNKWYTCWYSRFKFYV | -1.13 ± 0.26
RYLETYHSHACVSFTERN | 0.606 ± 0.45
RYMGGIWKSIRTS | 0.061 ± 0.21
RYNPCD | 0.334 ± 0.44
SACLFLDME | 0.664 ± 0.41
SACVLCFYQIFFYRVDCTGG | 6.414 ± 0.052
SACVWVNICTSASNGDPG | 7.445 ± 0.039
SAGYKLDSCTVYWGLACDSR | -0.366 ± 0.79
SAIDWDFQTIFLLSEFQYGF | -1.44 ± 1.1
SANHMKTDA | 0.436 ± 0.8
SAPYLIMLRLDSCACGDVF | 2.01 ± 0.083
SARIGISRFCPHAVSPVITK | inactive
SARPELCMPIIRLCGSREDQ | -0.056 ± 0.22
SARVSWGCWHFAMYSRCIRQ | inactive
SASMHWYSSRCDTL | 0.275 ± 0.29
SATARKNILVSLGSVALFDR | -0.82 ± 0.54
SAVNHTYVGD | 0.122 ± 1.1

— the supplement of paper PMC12042874
